Substrate: O=C(O)[C@@H]1CCCN1
Experiment: enzyme kinetics, Km
Format: biochemical, Homo sapiens

B1: human EPRS (bifunctional glutamyl-prolyl-tRNA synthetase) (Homo sapiens) (protein)
chain: MATLSLTVNSGDPPLGALLAVEHVKDDVSISVEEGKENILHVSENVIFTDVNSILRYLARVATTAGLYGSNLMEHTEIDHWLEFSATKLSSCDSFTSTINELNHCLSLRTYLVGNSLSLADLCVWATLKGNAAWQEQLKQKKAPVHVKRWFGFLEAQQAFQSVGTKWDVSTTKARVAPEKKQDVGKFVELPGAEMGKVTVRFPPEASGYLHIGHAKAALLNQHYQVNFKGKLIMRFDDTNPEKEKEDFEKVILEDVAMLHIKPDQFTYTSDHFETIMKYAEKLIQEGKAYVDDTPAEQMKAEREQRIDSKHRKNPIEKNLQMWEEMKKGSQFGQSCCLRAKIDMSSNNGCMRDPTLYRCKIQPHPRTGNKYNVYPTYDFACPIVDSIEGVTHALRTTEYHDRDEQFYWIIEALGIRKPYIWEYSRLNLNNTVLSKRKLTWFVNEGLVDGWDDPRFPTVRGVLRRGMTVEGLKQFIAAQGSSRSVVNMEWDKIWAFNKKVIDPVAPRYVALLKKEVIPVNVPEAQEEMKEVAKHPKNPEVGLKPVWYSPKVFIEGADAETFSEGEMVTFINWGNLNITKIHKNADGKIISLDAKLNLENKDYKKTTKVTWLAETTHALPIPVICVTYEHLITKPVLGKDEDFKQYVNKNSKHEELMLGDPCLKDLKKGDIIQLQRRGFFICDQPYEPVSPYSCKEAPCVLIYIPDGHTKEMPTSGSKEKTKVEATKNETSAPFKERPTPSLNNNCTTSEDSLVLYNRVAVQGDVVRELKAKKAPKEDVDAAVKQLLSLKAEYKEKTGQEYKPGNPPAEIGQNISSNSSASILESKSLYDEVAAQGEVVRKLKAEKSPKAKINEAVECLLSLKAQYKEKTGKEYIPGQPPLSQSSDSSPTRNSEPAGLETPEAKVLFDKVASQGEVVRKLKTEKAPKDQVDIAVQELLQLKAQYKSLIGVEYKPVSATGAEDKDKKKKEKENKSEKQNKPQKQNDGQRKDPSKNQGGGLSSSGAGEGQGPKKQTRLGLEAKKEENLADWYSQVITKSEMIEYHDISGCYILRPWAYAIWEAIKDFFDAEIKKLGVENCYFPMFVSQSALEKEKTHVADFAPEVAWVTRSGKTELAEPIAIRPTSETVMYPAYAKWVQSHRDLPIKLNQWCNVVRWEFKHPQPFLRTREFLWQEGHSAFATMEEAAEEVLQILDLYAQVYEELLAIPVVKGRKTEKEKFAGGDYTTTIEAFISASGRAIQGGTSHHLGQNFSKMFEIVFEDPKIPGEKQFAYQNSWGLTTRTIGVMTMVHGDNMGLVLPPRVACVQVVIIPCGITNALSEEDKEALIAKCNDYRRRLLSVNIRVRADLRDNYSPGWKFNHWELKGVPIRLEVGPRDMKSCQFVAVRRDTGEKLTVAENEAETKLQAILEDIQVTLFTRASEDLKTHMVVANTMEDFQKILDSGKIVQIPFCGEIDCEDWIKKTTARDQDLEPGAPSMGAKSLCIPFKPLCELQPGAKCVCGKNPAKYYTLFGRSY
For B1, the Km was 135.4 µM.
